# T1: EsCas13d, nuclease-dead (Eubacterium siraeum, UniProt B0MS50, R295A;H300A;R849A;H854A)
# T1 sequence: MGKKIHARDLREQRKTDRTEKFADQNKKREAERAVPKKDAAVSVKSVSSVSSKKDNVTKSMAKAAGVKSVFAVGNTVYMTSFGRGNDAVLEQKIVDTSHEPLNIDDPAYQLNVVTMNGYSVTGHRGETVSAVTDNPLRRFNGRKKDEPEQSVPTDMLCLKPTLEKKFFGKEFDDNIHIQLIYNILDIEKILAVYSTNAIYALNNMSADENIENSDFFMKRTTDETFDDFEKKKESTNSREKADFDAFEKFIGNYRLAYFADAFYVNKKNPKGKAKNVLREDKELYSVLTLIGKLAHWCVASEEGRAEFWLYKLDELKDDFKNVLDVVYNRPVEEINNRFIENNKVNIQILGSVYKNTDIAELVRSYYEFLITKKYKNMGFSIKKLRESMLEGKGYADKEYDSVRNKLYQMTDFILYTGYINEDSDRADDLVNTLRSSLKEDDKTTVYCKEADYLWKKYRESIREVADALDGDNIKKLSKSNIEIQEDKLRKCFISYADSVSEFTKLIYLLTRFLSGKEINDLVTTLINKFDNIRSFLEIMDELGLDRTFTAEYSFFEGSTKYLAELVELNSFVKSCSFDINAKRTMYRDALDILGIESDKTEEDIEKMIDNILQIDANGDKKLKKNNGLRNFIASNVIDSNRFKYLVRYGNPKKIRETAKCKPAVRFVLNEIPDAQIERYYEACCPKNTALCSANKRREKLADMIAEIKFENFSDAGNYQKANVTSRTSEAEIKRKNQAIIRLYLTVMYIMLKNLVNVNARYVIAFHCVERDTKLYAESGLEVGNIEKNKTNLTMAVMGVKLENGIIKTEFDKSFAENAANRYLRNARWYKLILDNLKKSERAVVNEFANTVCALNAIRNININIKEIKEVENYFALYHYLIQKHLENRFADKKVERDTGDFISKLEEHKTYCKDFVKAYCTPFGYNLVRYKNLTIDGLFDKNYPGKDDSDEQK
# Biological target: T1, EsCas13d, nuclease-dead
# Assay: crRNA (strand 1, pre-loaded); Mg2+; 40 mM Tris-HCl pH 7.5, 150 mM NaCl, 6 mM MgCl2, 1 mM DTT, 0.1% Tween-20, 0.2 mg/ml BSA; 25 C; 10 min per concentration, then washed
# Conditions: tags: His6-TwinStrep-SUMO cleaved; N-terminal SNAP kept (SNAP-Surface 488); label: 3' end held by stalled T7 RNA polymerase
row,Binder,Kd [nM]
1,target 1 MT 5'PFS GUA 3'PFS AAG (mixed) RNA 1: CACCCGUGCAAAAAUGCAGGGGUCUAAAACUGAGCGGAUAACCUCUCUAUGG RNA 2: GGGAAUGGAUCCACAUCUACGAAUUCGUACCAUAGAGAGGUUAUCCGCUCAAAGAGAUCGGAAGAGCACACGU,19.1 ± 1.2
2,target 1 MT 5'PFS GUA 3'PFS AAU (mixed) RNA 1: CACCCGUGCAAAAAUGCAGGGGUCUAAAACUGAGCGGAUAACCUCUCUAUGG RNA 2: GGGAAUGGAUCCACAUCUACGAAUUCGUACCAUAGAGAGGUUAUCCGCUCAAAUAGAUCGGAAGAGCACACGU,17.8 ± 1.5
3,target 1 MT 5'PFS GCG 3'PFS CUC (mixed) RNA 1: CACCCGUGCAAAAAUGCAGGGGUCUAAAACUGAGCGGAUAACCUCUCUAUGG RNA 2: GGGAAUGGAUCCACAUCUACGAAUUCGCGCCAUAGAGAGGUUAUCCGCUCACUCAGAUCGGAAGAGCACACGU,~43
4,target 1 MT 5'PFS AAA 3'PFS UCU (mixed) RNA 1: CACCCGUGCAAAAAUGCAGGGGUCUAAAACUGAGCGGAUAACCUCUCUAUGG RNA 2: GGGAAUGGAUCCACAUCUACGAAUUCAAACCAUAGAGAGGUUAUCCGCUCAUCUAGAUCGGAAGAGCACACGU,25 ± 5.5
5,target 1 MT 5'PFS UGU 3'PFS CAA (mixed) RNA 1: CACCCGUGCAAAAAUGCAGGGGUCUAAAACUGAGCGGAUAACCUCUCUAUGG RNA 2: GGGAAUGGAUCCACAUCUACGAAUUCUGUCCAUAGAGAGGUUAUCCGCUCACAAAGAUCGGAAGAGCACACGU,~90
6,target 1 MT 5'PFS GGC 3'PFS GCU (mixed) RNA 1: CACCCGUGCAAAAAUGCAGGGGUCUAAAACUGAGCGGAUAACCUCUCUAUGG RNA 2: GGGAAUGGAUCCACAUCUACGAAUUCGGCCCAUAGAGAGGUUAUCCGCUCAGCUAGAUCGGAAGAGCACACGU,7.25 ± 1.75
7,target 1 MT 5'PFS GCC 3'PFS CCU (mixed) RNA 1: CACCCGUGCAAAAAUGCAGGGGUCUAAAACUGAGCGGAUAACCUCUCUAUGG RNA 2: GGGAAUGGAUCCACAUCUACGAAUUCGCCCCAUAGAGAGGUUAUCCGCUCACCUAGAUCGGAAGAGCACACGU,8.9 ± 3
8,target 1 MT 5'PFS UCC 3'PFS AGA (mixed) RNA 1: CACCCGUGCAAAAAUGCAGGGGUCUAAAACUGAGCGGAUAACCUCUCUAUGG RNA 2: GGGAAUGGAUCCACAUCUACGAAUUCUCCCCAUAGAGAGGUUAUCCGCUCAAGAAGAUCGGAAGAGCACACGU,~60
9,target 1 MT 5'PFS GUA 3'PFS AAC (mixed) RNA 1: CACCCGUGCAAAAAUGCAGGGGUCUAAAACUGAGCGGAUAACCUCUCUAUGG RNA 2: GGGAAUGGAUCCACAUCUACGAAUUCGUACCAUAGAGAGGUUAUCCGCUCAAACAGAUCGGAAGAGCACACGU,20.4 ± 1.55
10,target 1 MT 5'PFS GAC 3'PFS CCG (mixed) RNA 1: CACCCGUGCAAAAAUGCAGGGGUCUAAAACUGAGCGGAUAACCUCUCUAUGG RNA 2: GGGAAUGGAUCCACAUCUACGAAUUCGACCCAUAGAGAGGUUAUCCGCUCACCGAGAUCGGAAGAGCACACGU,13.8 ± 3
11,target 1 MT 5'PFS UAU 3'PFS UUC (mixed) RNA 1: CACCCGUGCAAAAAUGCAGGGGUCUAAAACUGAGCGGAUAACCUCUCUAUGG RNA 2: GGGAAUGGAUCCACAUCUACGAAUUCUAUCCAUAGAGAGGUUAUCCGCUCAUUCAGAUCGGAAGAGCACACGU,22.5 ± 6
12,target 1 MT 5'PFS ACU 3'PFS UUA (mixed) RNA 1: CACCCGUGCAAAAAUGCAGGGGUCUAAAACUGAGCGGAUAACCUCUCUAUGG RNA 2: GGGAAUGGAUCCACAUCUACGAAUUCACUCCAUAGAGAGGUUAUCCGCUCAUUAAGAUCGGAAGAGCACACGU,52.5 ± 21
13,target 1 MT 5'PFS GCG 3'PFS CUG (mixed) RNA 1: CACCCGUGCAAAAAUGCAGGGGUCUAAAACUGAGCGGAUAACCUCUCUAUGG RNA 2: GGGAAUGGAUCCACAUCUACGAAUUCGCGCCAUAGAGAGGUUAUCCGCUCACUGAGAUCGGAAGAGCACACGU,10.7 ± 1.8
14,target 1 MT 5'PFS ACU 3'PFS UUG (mixed) RNA 1: CACCCGUGCAAAAAUGCAGGGGUCUAAAACUGAGCGGAUAACCUCUCUAUGG RNA 2: GGGAAUGGAUCCACAUCUACGAAUUCACUCCAUAGAGAGGUUAUCCGCUCAUUGAGAUCGGAAGAGCACACGU,46 ± 15
15,target 1 MT 5'PFS UAU 3'PFS UUU (mixed) RNA 1: CACCCGUGCAAAAAUGCAGGGGUCUAAAACUGAGCGGAUAACCUCUCUAUGG RNA 2: GGGAAUGGAUCCACAUCUACGAAUUCUAUCCAUAGAGAGGUUAUCCGCUCAUUUAGAUCGGAAGAGCACACGU,31 ± 7.5
16,target 1 MT 5'PFS GUA 3'PFS AAA (mixed) RNA 1: CACCCGUGCAAAAAUGCAGGGGUCUAAAACUGAGCGGAUAACCUCUCUAUGG RNA 2: GGGAAUGGAUCCACAUCUACGAAUUCGUACCAUAGAGAGGUUAUCCGCUCAAAAAGAUCGGAAGAGCACACGU,26.4 ± 3.45
17,target 1 MT 5'PFS GCG 3'PFS CUU (mixed) RNA 1: CACCCGUGCAAAAAUGCAGGGGUCUAAAACUGAGCGGAUAACCUCUCUAUGG RNA 2: GGGAAUGGAUCCACAUCUACGAAUUCGCGCCAUAGAGAGGUUAUCCGCUCACUUAGAUCGGAAGAGCACACGU,15.6 ± 3.75
18,target 1 MT 5'PFS GCG 3'PFS CUA (mixed) RNA 1: CACCCGUGCAAAAAUGCAGGGGUCUAAAACUGAGCGGAUAACCUCUCUAUGG RNA 2: GGGAAUGGAUCCACAUCUACGAAUUCGCGCCAUAGAGAGGUUAUCCGCUCACUAAGAUCGGAAGAGCACACGU,15.7 ± 3.15
19,"target 1 C6G,U8A (mixed) RNA 1: CACCCGUGCAAAAAUGCAGGGGUCUAAAACUGAGCGGAUAACCUCUCUAUGG RNA 2: GGGAAUGGAUCCACAUCUACGAAUUCGUACCAUAGAGAGGUUAACGGCUCACCGAGAUCGGAAGAGCACACGU",13.8 ± 0.6
20,target 1 MT 5'PFS ACU 3'PFS UUU (mixed) RNA 1: CACCCGUGCAAAAAUGCAGGGGUCUAAAACUGAGCGGAUAACCUCUCUAUGG RNA 2: GGGAAUGGAUCCACAUCUACGAAUUCACUCCAUAGAGAGGUUAUCCGCUCAUUUAGAUCGGAAGAGCACACGU,39.5 ± 15.5
21,target 1 MT 5'PFS UAU 3'PFS UUA (mixed) RNA 1: CACCCGUGCAAAAAUGCAGGGGUCUAAAACUGAGCGGAUAACCUCUCUAUGG RNA 2: GGGAAUGGAUCCACAUCUACGAAUUCUAUCCAUAGAGAGGUUAUCCGCUCAUUAAGAUCGGAAGAGCACACGU,18.1 ± 3.15
22,target 1 MT 5'PFS UAC 3'PFS CCG (mixed) RNA 1: CACCCGUGCAAAAAUGCAGGGGUCUAAAACUGAGCGGAUAACCUCUCUAUGG RNA 2: GGGAAUGGAUCCACAUCUACGAAUUCUACCCAUAGAGAGGUUAUCCGCUCACCGAGAUCGGAAGAGCACACGU,14.5 ± 6
23,target 1 MT 5'PFS CAC 3'PFS CCG (mixed) RNA 1: CACCCGUGCAAAAAUGCAGGGGUCUAAAACUGAGCGGAUAACCUCUCUAUGG RNA 2: GGGAAUGGAUCCACAUCUACGAAUUCCACCCAUAGAGAGGUUAUCCGCUCACCGAGAUCGGAAGAGCACACGU,9.7 ± 2.45
24,target 1 MT 5'PFS GGA 3'PFS AGG (mixed) RNA 1: CACCCGUGCAAAAAUGCAGGGGUCUAAAACUGAGCGGAUAACCUCUCUAUGG RNA 2: GGGAAUGGAUCCACAUCUACGAAUUCGGACCAUAGAGAGGUUAUCCGCUCAAGGAGAUCGGAAGAGCACACGU,31 ± 4.5
25,target 1 MT 5'PFS AAA 3'PFS UCG (mixed) RNA 1: CACCCGUGCAAAAAUGCAGGGGUCUAAAACUGAGCGGAUAACCUCUCUAUGG RNA 2: GGGAAUGGAUCCACAUCUACGAAUUCAAACCAUAGAGAGGUUAUCCGCUCAUCGAGAUCGGAAGAGCACACGU,15.2 ± 3.7
26,target 1 MT 5'PFS UUA 3'PFS UUA (mixed) RNA 1: CACCCGUGCAAAAAUGCAGGGGUCUAAAACUGAGCGGAUAACCUCUCUAUGG RNA 2: GGGAAUGGAUCCACAUCUACGAAUUCUUACCAUAGAGAGGUUAUCCGCUCAUUAAGAUCGGAAGAGCACACGU,30.5 ± 5
27,target 1 MT 5'PFS GGU 3'PFS UCU (mixed) RNA 1: CACCCGUGCAAAAAUGCAGGGGUCUAAAACUGAGCGGAUAACCUCUCUAUGG RNA 2: GGGAAUGGAUCCACAUCUACGAAUUCGGUCCAUAGAGAGGUUAUCCGCUCAUCUAGAUCGGAAGAGCACACGU,34 ± 8.5
28,"target 1 insA 3' of 13,insU 3' of 7 (mixed) RNA 1: CACCCGUGCAAAAAUGCAGGGGUCUAAAACUGAGCGGAUAACCUCUCUAUGG RNA 2: GGGAAUGGAUCCACAUCUACGAAUUCGUACCAUAGAGAGAGUUAUCUCGCUCACCGAGAUCGGAAGAGCACACGU",11.2 ± 0.8
